Data set [1] concerns the target T1, L-selectin (cell surface, Jurkat T lymphocytes) (Homo sapiens?) (UniProt P14151).
T1 sequence: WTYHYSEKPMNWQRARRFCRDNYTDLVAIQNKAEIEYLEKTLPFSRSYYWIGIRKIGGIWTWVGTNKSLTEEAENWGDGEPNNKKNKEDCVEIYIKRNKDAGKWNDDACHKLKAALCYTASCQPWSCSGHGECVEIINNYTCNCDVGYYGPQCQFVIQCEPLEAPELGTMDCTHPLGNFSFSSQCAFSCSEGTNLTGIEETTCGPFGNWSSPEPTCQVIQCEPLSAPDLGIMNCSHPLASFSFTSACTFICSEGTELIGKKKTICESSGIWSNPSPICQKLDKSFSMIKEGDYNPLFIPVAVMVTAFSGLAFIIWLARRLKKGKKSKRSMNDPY
The data set is described as follows: competition (flow cytometry). Particulars: vs 100 nM FITC-DREG56 antibody, 4°C, Jurkat cells, competition with 100 nM FITC-DREG56 for 35 min at 4°C, washed in PBS, 2% PFA fix, SLeX assay in PBS with 1% human serum albumin …. In general terms: Flow cytometry measures light scatter and fluorescence of single cells or particles in a stream.

Data set [2] has as its target T1, L-selectin (cell surface, Jurkat T lymphocytes). The data set can be described thus: flow cytometry titration. As to conditions: FITC-labeled, Jurkat cells, competition with 100 nM FITC-DREG56 for 35 min at 4°C, washed in PBS, 2% PFA fix, SLeX assay in PBS with 1% human serum albumin …, scale: apparent affinity relative to LS-Multi-Aptamer.

The IC50 is the concentration that inhibits the measured activity by half. In turn, “TAGCCAAGGTAACCAGTACAAGGTGCTAAACGTAATGGCTTCGGCTTAC [LS-Aptamer (monovalent)]” returned an IC50 in data set [1] above 1 µM. Moreover, the binding signal in data set [2] was found to be 0.001.

Source of the values: PMC4380364.
